Assay results published in publication PMC11301353 (iScience, 2024).

Assays:
Assay in all cases: site-directed spin labelling EPR
[1] = molecular target: SET/TAF-Iβ D260C mutant, MTSL spin-labelled (UniProt Q01105-2 1-277, D260C, MTSL nitroxide spin label on Cys260)
[2] = molecular target: SET/TAF-Iβ D226C mutant, MTSL spin-labelled (UniProt Q01105-2 1-277, D226C, MTSL nitroxide spin label on Cys226)
[3] = molecular target: SET/TAF-Iβ E243C mutant, MTSL spin-labelled (UniProt Q01105-2 1-277, E243C, MTSL nitroxide spin label on Cys243)

binding result [1]: binds
binding result [2]: binds
binding result [3]: binds
B1: wild-type cytochrome c (natural protein)
chain: not shown
modifications: heme group (assembled by co-expressed yeast heme lyase); reduced state in ITC and EPR
